The DeepSol protein solubility set

Test: soluble on expression in E. coli; label from the status in PepcDB or PDB records

## MSIKIGLLGFGTVASGIPFLLKENGEKVFAASRDQLEIAKVLVKDDEEKDRLIAAGNDYNFVTNVDEILNDEEIQIVVELMGRIEPARTFITKALEAGKNVVSANKDLIATHGKELIALAQDKGVAFYYEAAVAGGIPILRTLANSLTSDKVTRILGVLNGTSNFMMTKMVDEGWSYEDALKTAQELGYAESDPTNDVEGYDAAYKAVILSQFGFGATIDFDDVSHKGITNISTDDVAVAQELGYVIKLVGDVREVESGISAEVSPTFLPKNHPLASVNDVMNAVFVESIGIGESMYYGPGAGQKPTATSVLADIIRIARRLSDGNVGKPFNEFRRDLPLANPADVKSNYYFALDTPDEKGKILHLSEIFNSEDISFEQVLQQKANGTTARIVVITHAMSKTQLKAVTEKLEAAEDFTVVNTLKVLSNLEHHHHHH
  soluble on expression in E. coli: soluble

## MSLAIIEEARSGQITDEMKEISKLEGIPVEKVRNRISECKIILIRNAKYPSKKLVPIGKGLTTKVNINIGTSDEVVNLQMELEKVKVANRWGDTLMDLSTGGDLDDIRREIIRASELPVGTVPVYQVFIESFKKKSGGAYFTEDELLSTVEKHLKDGVAFMTIHAGITKELAIRALKSNRIIPIVSRGGDMIAGWMIHNNSENPYRKHWGYLLEMFKEYDAVISLGDALRPGATGDAHDEFQVGELLETARLVKSALKEGVQVMVEGPGHVPLNEIAWDVKLMKKLTGGVPYYVLGPLPIDVGAPYDHIASAIGAAISSAAGADLLCYLTPAEHLGLPTVKQVEEGAIAYRIAAHAGDVVKLGRRVRKWDDEVSYYRGKLEWDNMISRLIDPQRAYQVYTQFGIPKVKACTMCGGYCPMMWAMDQVRKIGSSSSLEGHHHHHH
  soluble on expression in E. coli: soluble

## MGSDKIHHHHHHMPFLLFKFPGKRVLGFSFEGRPHRHATGLSRFLDVHGAAYACELGRLSSELVGASEGALLKRLESLYDEILIDEVQDLSAHDWEIVDALLHSSIHIRMVGDIRQSVLATNPRSTKNKQYAYAETVKWFREREQLGRLAIRESVETWRCHPKIAAFSDTIFDASWAFPSTVSRNDAMTDHDGVFLLTKKHVRDYVERFAPQCLRSMAGSGKEFNLDFMNFKVAKGSTFERVLIMPTAGITDFVRKGSSLEPVPAASFYVAVTRAAQSVAMVIDNAGASTLPYWTP
  soluble on expression in E. coli: not soluble

## MKLAVLGTGMIVKEVLPVLQKIDGIDLVAILSTVRSLTTAKDLAKAHHMPLATSKYEAILGNEEIDTVYIGLPNHLHFAYAKEALLAGKHVICEKPFTMTAGELDELVVIARKRKLILLEAITNQYLSNMTFIKEHLDQLGDIKIVECNYSQYSSRYDAFKRGDIAPAFNPKMGGGALRDLNIYNIHFVVGLFGRPKTVQYLANVEKGIDTSGMLVMDYEQFKVVCIGAKDCTAEIKSTIQGNKGSLAVLGATNTLPQVQLSLHGHEPQVINHNKHDHRMYEEFVAFRDMIDQRDFEKVNQALEHSRAVMAVLERAVHS
  soluble on expression in E. coli: not soluble

## MKARKRKEQTFHEYFKEWVDLYKVGAIRSITLQKYYVTEQKIQELVPDLKIKDLDRYTYQQLLNSYAVTHEKQTTMDFHHHLKGAILDAVDEGVISQNPTRKIVIKGKTPRPKKAKFLNQFEVQALLKELNLKEDINWDWFILLIIKTGLRFSEALALTPSDFDFSKQKIIINKTWDYKMVTGSFQPTKNESSNRKIQIDWQLAMQFSQLIKMKDPDKPIFVKSRVFNSTINNRLKVLCENANIPTITVHSLRHTHASLLLFAGVSIASVANRLGHSSMTTTQETYLHIIQELENQDNDKIIRHLSMLM
  soluble on expression in E. coli: not soluble

## MQTQKPVFSEVTVHDPSIIKANGTYYVFGSHLASAKSTDLMNWTQISSSVHDGNPLIPNVYEELKETFEWAESDTLWAPDVTQLEDGKFYMYYNACRGDSPRSALGLAVADDIEGPYKNKGIFLKSGMDGISNDGTPYDATKHPNVVDPHTFFDQNGKLWMVYGSYSGGIFILEMDKKTGFPLPGQGYGKKLIGGNHSRIEGAYILYHPETQYYYLYMSFGGLAADGGYNIRVARSKNPDGPYYDAEGHAMIDVRGKEGTLFDDRSIEPYGVKLMGNFSFNNKNGYVSPGHNSAFYDEKSGKSYLIFHTRFPGRGEEHEVRVHQLLMNKQGWPVVAPHRYAGEKLEKVKKSDVIGDYELVRHGKDISADIKESKEIRLNQNGKITGAVAGTWKNTGHNKIELKIDGKTYDGVFLRQWDAASERKVMTFSALSREGDAVWGSSLKRAEFLEHHHHHH
  soluble on expression in E. coli: soluble

## MSATLPCGMHKCQRLCHKGECLVDEPCKQPCTTPRADCGHPCMAPCHTSSPCPVTACKAKVELQ
  soluble on expression in E. coli: soluble

## MNKIHLCTLAVLTSLSFSSLAKDCDANLLPSWKDSDSKTAIVNFVEQSTDSSKATFIPVSDRIAVFDNDGTLWSEKPIYFQIAFALDQIKALAKTHPEWKTQEPFKSVIENDLEKVFAGGKESLLQIMKVTHSGMTVEEYQQSVEQWLAAAKDKRFGKAYNDLTFKPMREMLTYLQENNFKTYIVSGGGVDFMRVWAPEAYNIPEEQIIGSALKYEYSFNDGQPKVMKLGELLTLDDKEVKVENIQYIIGKKPVLAVGNSDGDQAMMQWATSQPNSMAMIVHHTDEAREWKYDRQSDVGRLDKALDEANERDNWQLIDMKNDWCAVY
  soluble on expression in E. coli: not soluble

## MGSDKIHHHHHHMPLLDVRNLTIELDTPHGRVRALEKVSLTLNAGEIHGLVGESGSGRSLLARAILGIPGPNWTITADRMMWDGNNLMAMSSKERRNLMGSDMAMIFQDPSGSLDPAQTVGSQLMQAMPKNPNAYFWQKRRHARLTAQKWLHKVGIKNPRQVMSSYAWELSEGECQKVMIAMAVANQPRLLIADEPTSSMELSTQAQIFRLLSQLNQLQNVSILLISHELETLAQWCDHLSVLYCGQVMESGPTDEVIKQPYHPYTKALLDNMPDYSGSGGHKAIMPTLPGSAPALQHLPIGCRLGPRCPEAQKKCVNQPNLSHIKDRYFACHFPYHGETHNDDPTA
  soluble on expression in E. coli: not soluble

## MSLQPVAKTEQPEGGILYDFGKETFGFITLKNLSGKGKIDLYYGESPEEAKDKAYCETLDKLLLEPGQITDLAIRSTSPLHHSDNEYTLENSKAFRYVYITHEPEVQIGEVSMQYEYLPEEYRGNFRCNDEELNCIWEVGAYTMHLTTREFFIDGIKRDRWVWSGDAIQSYLMNYYLFFDSESVKRTIWLLRGKDPVTSHSNTIMDYTFYWFLSVYDYYMYSGDRHFVNQLYPRMQTMMDYVLGRTNKNGMVEGMSGDWVFVDWADGYLDKKGELSFEQVLFCRSLETMALCADLVGDKDGQQKYEKLASALKAKLEPTFWNNQKQAFVHNCVDGRQSDAVTRYANMFSVFFDYLNADKQQAIKQSVLLNDEILKITTPYMRFYELEALCALGEQETVMKEMKAYWGGMLKAGATSFWEKYNPEESGTQHLAMYGRPYGKSLCHAWGASPIYLLGKYYLGVKPTKEGYKEFAVSPVLGGLKWMEGTVPTPNGDIHVYMDNKTIKVKATEGKGYLTIQSRRQPKANMGTVEKVSEGVWRLWIDSPEERIVTYRLEGHHHHHH
  soluble on expression in E. coli: soluble

## MSLHEYELNQDLLAENKRLAEKNREALRESGTVAVNIMGAIGSGKTLLIERTIERIGNEVKIGAMLGDVVSKADYERVRRFGIKAEAISTGKECHLDAHMIYHRLKKFSDCDLLLIENVGNLICPVDFDLGENYRVVMVSVTEGDDVVEKHPEIFRVADLIVINKVALAEAVGADVEKMKADAKLINPRAKIIEMDLKTGKGFEEWIDFLRGILNVHSDSGQNEGGSHHHHHH
  soluble on expression in E. coli: soluble

## MGEEILTERNQLSRQDASCFRSPRSPLGRTDDAFFELDDDDDLSSPSVPGSPVDPPSISVPLPPKSAPPCPTQPAPLTNGDLYPTILSNGTPIPNGRITPALSTVSVSLIHEARLQQSLSTPCNGSEEEMHNGQVRKESEYRRFKSEGSTAGASLPAAEKTHMDELSPVDQRSTSGTARFLIQQDSVVNPSTKMSNTEQVAMMHTLKTKLSKYQAMMDKAFEEIAKVEDANIIEGCTIVRKLMRKVWNTPKVSADLANALCDYLRDRDYFDKLIKMFISPNTAACDQVRMECGKVLEECTSSANLEYIVNKSYTKKIMIVAMKLNKTPDQQRLSLSLIGNLFKHSNAVSLSLIETDVIDHIILTFKRAPECPDILRHAALALANILLYTCFEGKKKIIQKKIPEWLFFLASQADDVTRYYACIAVCTIVSVKEFEPLVRKSDTMKLVEPFLQVHDPATFARDYHKYAQGNTKEWLERLLPMLQPSRRREARSVAAFHFTLEATIKKEQNKLDVFQEIGAIQALKEVASSPDEVAAKFASEALTVIGEEVPYKLAQQVPGWTCADVQYWVKKIGFEEYVEKFAKQMVDGDLLLQLTENDLKHDVGMISGLHRKRFLRELQTLKVAADYSSVDESNLDNFLMGLSPELSVYTYQMLTNGVNRSLLSSLTDEMMQNACGITNPIHRLKLTQAFETAKHPDDVEVAMLSKQIDVFISYRRSTGNQLASLIKVLLQLRGYRVFIDVDKLYAGKFDSSLLKNIQAAKHFILVLTPNSLDRLLNDDNCEDWVHKELKCAFEHQKNIIPIFDTAFEFPTKEDQIPNDIRMITKYNGVKWVHDYQDACMAKVVRFITGELNRTTPTTKEMPSISRKTTQQRWQTTNTVSRTGPSRSIGGPRMEPPTPTFFSVTPTGSQERATSTRRKIQPSASTTSDRN
  soluble on expression in E. coli: not soluble

## MSLSPEDLEATGARLVEELVEYRTRTQVSTAVIGMSGGVDSALTAALFKAAGWHVMGHTLPIEQDPTETDRGIEACAALGIEHRPLDLSGAYEAALAQLGELDPDLLSSDETPARTRRGNLRARLRMMTLYDQAHRLGGLVAGTDNFSELTAGFWTLHGDVGDLAPVQSLLKSWEVPWLARAYRVPEATWRAMPTDGLGIGGGDEAQIGATYLEWDILQFALAEALGDDPGLATRHLAFALRMDADRHAQEVLGTLIARMRATWHKRLNEGHHHHHH
  soluble on expression in E. coli: not soluble

## MTITALTVTLPLLWRRLTTAGVKYADQGHFVGSAGVPAADAGGRDAASEQIARWTQTCTVVLVCGHGPAKWAFRSWCTSRSCDTLPVALRYRLQSNPLVGKLTTKYFLPLGTRQVGDHVVFFNFGYEEDPPMALPLSESDEPNRYCIQLYHQTASQVDLTGKEVLEVSCGAGGGASYIARNLGPASYTGLDLNPASIDLCRAKHRLPGLQFVQGDAQNLPFPDESFDAVVNVEASHQYPDFRGFLAEVARVLRPGGHFLYTDSRRNPVVAEWEAALADAPLRTISQRDIGAQAKRGLDANTARSQEAIGRRAPVLLAGLTRCAVRVLDWDLRRGGGFSYRIYLFAKD
  soluble on expression in E. coli: not soluble

## MSNRNLRSSTNSEFSEGQHQTPSSDSSGHGEDQPQASPGPNKKSHTPKKNISKGAVLHEKPMTVMVLTATEPFNYKEGKENMFHATVATESKYYRVKVFNMDLKEKFTENQFITISKYFNSSGILEINETATVSEAAPNQMFEVPKNIIRSAKETLKISKIKELDSGTLIYGVFAVEKKKVNDKSITFKIKDNEDNIKVVWDKEQHNINYEKGDKLQLFSFHLRKGNGKPILHSGNHSFIKGEKLLKESFEGDGYHKGPKQVVALKATKLFTYDSIKSKKMFHATVATDTEFFRVMVFEENLEKKFIPGNTIALSDYFGMYGSLAIHEYSSVSEVKSQNKEDSSSSDERPIEHLKICDLHLQTEERLVDGEFKVYRKSSGNNCICYGIWDDTGAMKVVVSGQLTSVNCEIGNTIRLVCFELTSNADEWFLRATRYSYMEVIMPEK
  soluble on expression in E. coli: not soluble

## MSQEIYDYANQLERAVRALPEYQKVLEVKEAIQADVSASELFDEFVAMQEKIQGMMQSGQMPTAEEQTSIQELSQKIEANDQLKAYFEAQQALSVYMSDIERIVFAPLKDLVK
  soluble on expression in E. coli: not soluble

## MSGKISEEAMQEQAERAEYVKNIGIEYRFGCYEEKRPESCQLLGEYMEALQQNFQAAVAIFKKNCDENSYPKSCFKYGMYMLAGKVGDDASLSKMIRPMKIACDANIPQGCRYLSLVHWNGEKDRKADSEKAERYMRRACELEDGEACWLLSTWYMGNKEKFKTNAAGEAKELDRAELGSLSRDMDKSLQFAIRACEMDIPQSCANVSRMFKLGDGVPKDLDQAKKYADRAKEIMETLRSNDTNAGFTG
  soluble on expression in E. coli: not soluble

## GISVDKRIEQATSDFLAAAQAIDLQEHLISGYRSVDYQTELYQSYIKKEMANDPTLTQEAAEALVQTYSQPPGASEHHTGLAIDMSTVDTLNASDPSVAKAVQKIAPDYGFVLRFPEGKKTSTGVDYEDWHYRYVGKASARYMAQHNLTLEEYIAALKEKR
  soluble on expression in E. coli: not soluble
